Here are results for 19 sequences from the DeepSol protein solubility set.

A short description of this series: soluble on expression in E. coli; label from the status in PepcDB or PDB records.
On to “MAHHHHHHMLLLLEREHPAVHAAVERILRGDSKIPVSVVRDFDGCEYHIRVEWDKEEKEMSQTSGVDSKDTGSGEVGTVNVGGTASVTVSLRSFTPFAELNTHGNFYEVLTTLFPSELQKFVVCDTHKGDGEDFTVAVHIPSNVPAKMLKEAMHSTAQLRAWSFVPAFARQFELFLTNPEVVQPLQLHYHDGEEMVVYNNRGSFIVAIALRVPSKDDAVLTRHFLQAMVEVRKHERSFCGSSAFIFEQGGPPDSVVAVTGPRGRVRDPNTFWCSFQLYKQQMEPPPRLVETVMHLVNFRTTLAYHIRAGRTYMHGIMRKRVESSLQWLNKAKARVAEETKITIT”, for which the “soluble on expression in E. coli” value was “not soluble”. Then “MAVDAVGRQKTIQEIIDSTTNKSTQRNTGELGKDEFLNLLITQLQYQDPLNPVDDKEFISQMAQFSALEQMQNLNKSFSATKAFGMIGKYITGTTSNGSDSGAGFVEGIVRSVKMENGKILLEVNGLDVPVDNVLSVSEESNYYYKYNSSNISQYTGIIGYEVSGSVYDPSTGDIVGVSGIVREIQKGIYEDYAVMDGVEVIISGIDTEFNSADPNFRKDYLTENVGQGVSLIITDAYGYGFKVPVTGVLKDFKIAPNGKIIGILDGVYVPVDSISNIKKPSANTGAADGTNENPQVEQSQTEESQVEEPQVGEPRDEESDSV”, with “soluble”; and “MRGSHHHHHHGSPGLQEFMAATGANAEKAESHNDCPVRLLNPNIAKMKEDILYHFNLTTSRHNFPALFGDVKFVCVGGSPSRMKAFIRCVGAELGLDCPGRDYPNICAGTDRYAMYKVGPVLSVSHGMGIPSISIMLHELIKLLYYARCSNVTIIRIGTSGGIGLEPGTVVITEQAVDTCFKAEFEQIVLGKRVIRKTDLNKKLVQELLLCSAELSEFTTVVGNTMCTLDFYEGQGRLDGALCSYTEKDKQAYLEAAYAAGVRNIEMESSVFAAMCSACGLQAAVVCVTLLNRLEGDQISSPRNVLSEYQQRPQRLVSYFIKKKLSKA”, with “soluble”. The result for “MILMESLSVSGTETVSVPQDWNVMDVIGAKSWYVVSEKEPSWEEIIKGKTVEAVDEPPSRFEVISTSPLVLKKDTKYYIYNSTLKKWLVLEYEEPQSSRKLVMNGQGKVTLLLRSSGSWNVRYYLFEDTLTGNAFLSVSGVESADVFLISRPAGEASIWKGMYLSASPSREMPEEHESEEVKVYHLGKVKDLDKSPVVNLIETNLFNVNEYYSYSFAVNDSIFDYQKTTFTRSFMTPVDLPGGTVSIFSNISGVDIMIGETSIPDTPKNSLLELPVTDSWDVRVKGEILDERNYKDTYEYERTWRVTVQNLNETESKVRINIYGNMMRLLRSSIKPLKETSDQIVFELIVPPNSEKEFEFKVRSGWLEHHHHHH” reads “not soluble”; that for “MAIHVEHVGVLERAREVSRLEDIITEDNEDIEAEMPKMRDDPAGKEARFLQATDEMSAALTQFMKKKIYEEQLANFLDGEEYVLEDQPIEKTDKVMEALKAATTHDYEVYSFAKKLFPDESDLVVVLRAILRKKQISENVRLNAEALLRKVNQETTKKFINSGINSALKAKLFGQALSLNPKLLRASYRQFLMAEDDAVDTYVEWIGSYGYQNRMLVTKFIKETLFSDINALDASCSSLEFGMFLNKLSQLLSLQSAEALFLKTLMNNPIIKKFISAEDYWIFFLISLIKFPETAEELLNNALVTLPADANYKDKTLLLKAIYSGCTNLPFSLFINNEQLLEIRECCKQAIKVTFAAELFDTQNCNKKQNKKPWKKVMFNV”, “not soluble”; that for “MESLTLQPIARVDGAINLPGSKSVSNRALLLAALACGKTALTNLLDSDDVRHMLNALSALGINYTLSADRTRCDITGNGGALRAPGALELFLGNAGTAMRPLAAALCLGQNEIVLTGEPRMKERPIGHLVDSLRQGGANIDYLEQENYPPLRLRGGFTGGDIEVDGSVSSQFLTALLMTAPLAPKDTIIRVKGELVSKPYIDITLNLMKTFGVEIANHHYQQFVVKGGQQYHSPGRYLVEGDASSASYFLAAGAIKGGTVKVTGIGRKSMQGDIRFADVLEKMGATITWGDDFIACTRGELHAIDMDMNHIPDAAMTIATTALFAKGTTTLRNIYNWRVKETDRLFAMATELRKVGAEVEEGHDYIRITPPAKLQHADIGTYNDHRMAMCFSLVALSDTPVTILDPKCTAKTFPDYFEQLARMSTPA”, “not soluble”. Then “MTVIQWFPGHMAKAKREVQEKLKLIDVAFELLDARVPMSSRNPMIDEILGQKPRLILLNKADMADEAVTEQWIRYFHDQGRLALPIDAQSGTGVRQIAAAAKEMVKDKFEKMRAKGIKNPRPVRALIVGIPNVGKSTLINRLAGRHIAKTGDKPGVTKAQQWIKVGKEMELLDTPGILWPKFEDEDVGYKLAVTGAIKDEILNLQDVAVYALRFLSTHYPNRLAERYGLDDIPDDIVALFDAIGRQRGCLTSGGAVDYDKVADIVLYDIRTEKLGRLSFETPASRT”, with “not soluble”. Turning to “MAHHHHHHMIPRYDGLVPAIRGPASACAVASVNATPSSTTKRTAAATTVARYVICPVETTGTENAHVNATAERERRLFAFLPSVDCAAPPRELRVSSHYFEDALVASVASSDAESGEDLDEGEESHTSTARRGNTREDGAHGSNSGSRKRRRARRREPMRLEYDGFLAPATEATKRVRLVSTPASEYSHLTCVLLQLPTAWREQDMDEGEGHGRTACVSSSSTSKPLITSMPLRRPILQLWGERNTAAAGPNDGSLCTGSSAASISAAWGSDTRLQISKKDWKTMDAAEEDLHKPTNWSDDDGGDASDEGRGKSASGADDAISARARKREREEATSIAVRSFLAGTKEALRQQGAVGAADGFAQPQPAVRSDNAAPVSARVETSAPVKAAAKRATVTVPLSSGSSGSRVRSSVATPAVPPTHALTTNSAAPLPSSGVAPPDGSASLDSLACTVVTGMLSSEARRAATLMELQKRILKQLPEFATMSQKMKSTATKQEAVAWFQTSQQALRAWLVEHGHTIDSDGTVTFGDA”, the “soluble on expression in E. coli” value is listed as “not soluble”. The result for “MGSDKIHHHHHHMDQFDRTPLMTADSEALATARRVLATEARALDSLATSLGDAFLKAVTLIEGAPGRVVVTGMGKSGHVARKIAATMASTGCPAFYVHPAEASHGDLGMVTRDDAVVALSNSGETPELSDVIAYTRRFEIPLIGITSRDGSTLAAASDVALVLPPNPEACPMGLAPTTSTTLMLALGDALAVTLLERKGFTAADFQVFHPGGKLGQRLLKVTDLMHGGDGLPLVGTEASMADVLLVMTAKSLGCAGVIDSGGKLAGVLTDGDLRRHMSPDLLTAKAAEVMTASPRTVPPNLLAAEALRQMNERSITSLFVVESDGRPVGVLHVHDCLRAGLA” reads “not soluble”; that for “MTHRPAPDDMAELIYTSGTTGNPKGVILTHRNLVANILQVNRHIPVVTPDFSFLSLLPLSHMFEQMGGFFTPLYRGAAIVYIRTLKPSAIMEALGEEDIYAIIAVPRLLQLLKGSVERELEAKGLGSIFRWLLKVGERMSRGGRSVLFRPIQRKFGRNFALFVSGGAPLDPEVFRFWNGLGFRVVEGYGLTECSPVLTANTMERQVMGSVGLEHHHHHH”, “soluble”; that for “MASETIHFSFANADVYIVARSPNNQNGTGDDTMSYSAKSFSALINAMRADGITRLEQLARQPFRNAQGFWSAEVKK”, “not soluble”. With “MSLTYILRRSQLLLIVSSYQLVHYLCSQLSSLKDASCMCAYILTTLYKDIDMELAEKDKGRDFTLRNARMDDIDQIIKINRLTLPENYPYYFFVEHLKEYGLAFFVAIVDNSVVGYIMPRIEWGFSNIKQLPSLVRKGHVVSIAVLEEYRRKGIATTLLEASMKSMKNDYNAEEIYLEVRVSNYPAIALYEKLNFKKVKVLKGYYADGEDAYLMARPLEGHHHHHH”, the “soluble on expression in E. coli” value is “not soluble”. Then “MSGRLTGKVALVSGGARGMGASHVRAMVAEGAKVVFGDILDEEGKAMAAELADAARYVHLDVTQPAQWKAAVDTAVTAFGGLHVLVNNAGILNIGTIEDYALTEWQRILDVNLTGVFLGIRAVVKPMKEAGRGSIINISSIEGLAGTVACHGYTATKFAVRGLTKSTALELGPSGIRVNSIHPGLVKTPMTDWVPEDIFQTALGRAAEPVEVSNLVVYLASDESSYSTGAEFVVDGGTVAGLAHNDFGAVEVSSQPEWVT”, with “soluble”; and “MGSDKIHHHHHHMSDPTWDGSPQYRNELLRFMPADDLALLAPHMQRCALPVRMMLVTPNIPIEAVYFIEQGIGSVVASTASGHDAEIGFIGFEGMTGSALVMGDDRAAHACFVQLEGEAIRIDAAPFNAALAASPTLRLFLLHFVNTLHTQTGCTALVNARLKLEERLARWLLMCDDRVPGESLAMTHEFLSIMLGVRRPGVTVALQLLEGRALIRSRRGEIVIRDRAGLLELANGGYGQAEAEYARLIGEIMPG”, with “not soluble”; and “MLITERIYVLEDVDVQAFLGVNNSNLMLLRTLFPKLRLVAHHNVLKIMGDSRETDRFLEVLEPMVAYCREYNLLPEDVILRIAQGAKLPADDVPKHLILHGTGGKSIIARGDNQQKLVEAFEANDLVFAIGPAGTGKTFVAISLAVRALKSKQVRRIILSRPAVEAGEKLGFLPGEMKDKLDPYLQPLYDALEEMIPAVKLKEYIENNIIQIAPLAYMRGRTLNDAVVILDEAQNTTELQMKMFLTRLGANAKMIVTGDITQTDLPRGVHSGLRQALNILQGTRGIGYIAFQRADIVRHPLVQRVVDAYDRYDAERKKEAEAAAVVAQTI”, with “not soluble”. Then “MSQQSLISPSLQDILCKIQFNDTQFETTKKITRKRSNNFNPDRKKRNRITFDANQIDEMEKVFAENQYPDTMSREKLANKIQLHEERVQIWFQNRRAKYRREQKQTGHPYEPPSITKNPTGEKEKTQDCTTLTSASSPGPSNLSNDTLVSIEMAPKIGTKSVNLFPDQALSNTLNMIINANKNASENNYESEDQFNAESAKLLMLTLSNLFSLQNETTCE”, with “not soluble”; and “MKCIETPKSAEEWRKVERTFAKKHILRCLGSLDGKHIRIKAPPHSGSLFFNYKHFFSFVLLVVVDADGRVIWVDVGSPGSNNDASIFSDSKLKTILDEEANLPPPTFWSRDFVVKPFVIADGIFKITPRMMTLYGGNGLNISQKVLNKKLSRARVKAEHAFGRLSAKFRILRREMECPYEKSVDIILALCHLHNYLIGKAEDVVNVPIETNMIPYKDGKEQRDYLCRYLNN”, with “not soluble”; and “MGSDKIHHHHHHMAILLMQKPDNKAKQFICKKLGINNLGITKPGGRGLTQPVVKLELKRPLYAKGNNYNIINNDETDRYWKPAGITKIFLDRLTNCVSQEAGNMALAEGYFSLEDRYTLYFDISKIQQEFVDLNAQEFFRQFDNLKTLGMLADIAIPLQLCNGLDASITNFSDGQFQSVYIYSIVELFKDRNCLTLLDEPDSFLHPEWQFEFPKQVLEITDAAAKSNHILMSSHSASTITTANENLINLFELQDDKIVVNKVNKADIIKSLSAGLISFSESEAHLNIHHALKNTTGAVLFTEGITDEMILETAWTKIFPAQKRSFAIQNAFDRIFLRNLFSREELEKNFPDRIMFALFDFDEAYDDWNGLKKESDSETDPYKGLSKQLKCKHHYAMLLPVPDIQALKHQVLNPEGKPWGKGAQSHLPIELLFYKDEFLGQWFQKKATPGGGEIIEFIGDKVSFAKNFVPTLEATCFEPLKLVFEFIQSKC”, with “not soluble”. “MGSDKIHHHHHHMLPFLRSELARCQPYHPNPGGTGMAMDILDTNECPYDLPTDLKQTLADRYVEAIASNRYPDGSHTDLKAAIVDYLSEQTAGQWQPGPEHVTVGNGSDELIRSILIATCLGGQGSVLVAEPTFSMYGIVAETLGIPVVRIGRDPQTWEMDLAAAETAITQTEGTPVRLCFVVHPNSPTANPLTEAEKDWLRQVPPQILVVIDEAYFEFSGETLLAELPQHPNWLITRTFSKALRLAAHRVGYGIGDPQLIAALEAIRLPYNLPSVAQLAATLALEARSQLLSAIPRLITERDRLYRKLQVVSQLQVWPSASNFLFLKTQSSSQTAALAAQLKAQGTLVRHTADGLRITIGSPAENERTLAHLQTAITQSLPATV”: the “soluble on expression in E. coli” value was “not soluble”.
